Some targets named below: HLA-A*02:01; HLA-A*02:06; HLA-A*02:17; HLA-B*51:01; HLA-A*02:03; HLA-A*68:02; HLA-B*07:02; HLA-B*35:01; HLA-B*53:01; HLA-B*54:01.
Common to all, as to assay: IEDB peptide-MHC binding, purified MHC/competitive/radioactivity; filed as Kd, often an IC50 or EC50 that approximates it; ≥ and ≤ were set here for values at or beyond the usual limits of such assays
For a further assay, the target named is HLA-A*30:01. To be noted: source organism: Dengue virus 2 Peru/IQT2913/1996.
The target in another assay is HLA-A*32:01. Particulars: source organism: Dengue virus 1 Brazil/97-11/1997.
In the next assay the target is HLA-A*02:02. Particulars: source organism: Vaccinia virus WR.
The next assay addresses HLA-A*03:01. Particulars: source organism: Vaccinia virus WR.
The next assay addresses HLA-A*11:01. To be noted: source organism: Vaccinia virus WR.
The target in another assay is HLA-A*31:01. To be noted: source organism: Vaccinia virus WR.
Another assay addresses HLA-A*33:01. Particulars: source organism: Vaccinia virus WR.
The target in a further assay is HLA-A*68:01. To be noted: source organism: Vaccinia virus WR.
A further assay deals with HLA-B*08:01. Particulars: source organism: Dengue virus 2 Jamaica/1409/1983.
The target in a further assay is HLA-B*15:01. To be noted: source organism: Dengue virus 2 Jamaica/1409/1983.
The target of a further assay is HLA-B*57:01. Particulars: source organism: Dengue virus 1 Brazil/97-11/1997.
Setting [1] is: source organism: Dengue virus 1 Singapore/S275/1990.
[2] abbreviates: source organism: Dengue virus 2 Thailand/NGS-C/1944.
The mark [3] stands for this setting: source organism: Dengue virus 2 Peru/IQT2913/1996.
[4] abbreviates: source organism: Dengue virus 2 Jamaica/1409/1983.
Where [5] appears, read: source organism: Dengue virus 3 Sri Lanka/1266/2000.
Where [6] appears, read: source organism: Dengue virus 3 Martinique/1243/1999.
The mark [7] stands for this setting: source organism: Dengue virus 3 China/80-2/1980.
Setting [8] is: source organism: Dengue virus 1 Brazil/97-11/1997.
Where [9] appears, read: source organism: Vaccinia virus WR.
Where [10] appears, read: source organism: Mammarenavirus guanaritoense.
Setting [11] is: source organism: Triticum aestivum.
The mark [12] stands for this setting: source organism: Mammarenavirus machupoense.
Where [13] appears, read: source organism: Dengue virus 4 Philippines/H241/1956.
Where [14] appears, read: source organism: SARS coronavirus Tor2.
[15] abbreviates: source organism: Mammarenavirus lassaense.

As usually defined, the Kd is the equilibrium constant for the complex coming apart.

A value given as a limit tells only on which side of the number the result lay.

With FSLGLLCISI, the Kd is 7.58 nM in the assay with HLA-A*02:01 (setting [1]), 2.6 nM with HLA-A*02:06 (setting [1]), 942 nM in the assay with HLA-A*02:17 (setting [1]) and at least 40800 nM with HLA-B*51:01 (setting [1]).

Turning to GMIIMLIPTV, the dissociation constant (Kd) was 70.9 nM with HLA-A*02:01 (setting [2]); 4.49 nM in the assay with HLA-A*02:03 (setting [3]); 94.7 nM with HLA-A*02:06 (setting [3]); 6590 nM with HLA-A*02:17 (setting [2]); 12600 nM with HLA-A*30:01.

With IILEFFLIV, the Kd in the assay with HLA-A*02:06 (setting [4]) was 0.384 nM; with HLA-A*02:17 (setting [4]), 89.8 nM.

Take ILAGVSLLPV: the Kd with HLA-A*02:01 (setting [5]) is 4.65 nM; with HLA-A*02:03 (setting [6]) it was 8.16 nM; with HLA-A*02:06 (setting [6]) it was 1.59 nM; in the assay with HLA-A*02:17 (setting [5]), 1680 nM.

On to ILALFLAHYI, for which the Kd is 33.5 nM with HLA-A*02:03 (setting [6]) and 266 nM with HLA-A*02:17 (setting [7]).

Regarding ILWENNIKL, in the assay with HLA-A*02:17 (setting [7]), the Kd is 91.1 nM.

IMAIGIVSI: the Kd was 13.2 nM in the assay with HLA-A*02:01 (setting [8]), 13.4 nM in the assay with HLA-A*02:03 (setting [8]), 699 nM with HLA-A*02:17 (setting [8]) and 77.6 nM in the assay with HLA-A*32:01.

As to IPFIAYFVLM, the Kd is 1330 nM with HLA-A*02:01 (setting [9]); 3190 nM in the assay with HLA-A*02:02; 2050 nM with HLA-A*02:03 (setting [9]); 7870 nM with HLA-A*02:06 (setting [9]); 654 nM with HLA-A*03:01; 4520 nM with HLA-A*11:01. The Kd was 652 nM with HLA-A*31:01; 1470 nM with HLA-A*33:01; 1480 nM with HLA-A*68:01; 9330 nM in the assay with HLA-A*68:02 (setting [9]); at least 39600 nM with HLA-B*07:02 (setting [9]); 1210 nM in the assay with HLA-B*35:01 (setting [9]). In addition, the equilibrium dissociation constant (Kd) with HLA-B*51:01 (setting [9]) was determined as 2230 nM; with HLA-B*53:01 (setting [9]), 1300 nM; with HLA-B*54:01 (setting [9]), 2000 nM.

In the case of LMMRTTWAL, the Kd came to 1.35 nM in the assay with HLA-A*02:01 (setting [4]); 0.47 nM in the assay with HLA-A*02:03 (setting [4]); 8.05 nM with HLA-A*02:06 (setting [4]); 35.9 nM with HLA-A*02:17 (setting [4]); 1.32 nM in the assay with HLA-B*08:01; 0.12 nM with HLA-B*15:01.

Regarding LPIFSEFVL, the Kd was determined as 217 nM with HLA-B*07:02 (setting [10]); 8.59 nM with HLA-B*35:01 (setting [10]); 18500 nM in the assay with HLA-B*51:01 (setting [10]); 55.8 nM with HLA-B*53:01 (setting [10]); 491 nM with HLA-B*54:01 (setting [10]).

Regarding LPYPQPQPF, the Kd turned out to be 69.3 nM with HLA-B*07:02 (setting [11]); 2.53 nM in the assay with HLA-B*35:01 (setting [11]); 2.85 nM with HLA-B*51:01 (setting [11]); 16.1 nM in the assay with HLA-B*53:01 (setting [11]); 742 nM with HLA-B*54:01 (setting [11]).

In the case of MLLILCVTQV, the Kd was 4.15 nM in the assay with HLA-A*02:01 (setting [4]), 18.2 nM with HLA-A*02:03 (setting [4]), 7.91 nM with HLA-A*02:06 (setting [4]) and 158 nM with HLA-A*02:17 (setting [4]).

With MPALTIACM, the Kd in the assay with HLA-B*07:02 (setting [12]) was 142 nM; in the assay with HLA-B*35:01 (setting [12]), 5.23 nM; in the assay with HLA-B*51:01 (setting [12]), 3700 nM; with HLA-B*53:01 (setting [12]), 25.7 nM; with HLA-B*54:01 (setting [12]) it was 836 nM.

For the sequence MVIENGILKK, the Kd with HLA-A*02:01 (setting [9]) is at least 69400 nM; with HLA-A*02:02, at least 70000 nM; with HLA-A*02:03 (setting [9]), at least 70400 nM; with HLA-A*02:06 (setting [9]), at least 69800 nM; in the assay with HLA-A*03:01 it was 38.3 nM; with HLA-A*11:01, 12.3 nM. Besides, the Kd with HLA-A*31:01 was 4860 nM; with HLA-A*33:01, at least 35100 nM; with HLA-A*68:01, 14.9 nM; with HLA-A*68:02 (setting [9]), 11200 nM; with HLA-B*07:02 (setting [9]), at least 69600 nM; in the assay with HLA-B*35:01 (setting [9]), at least 30300 nM. For the same sequence, the Kd is at least 69600 nM in the assay with HLA-B*51:01 (setting [9]), at least 69900 nM with HLA-B*53:01 (setting [9]) and at least 69900 nM with HLA-B*54:01 (setting [9]).

QLWATLLSL: the Kd in the assay with HLA-A*02:01 (setting [1]) amounted to 1.16 nM; in the assay with HLA-A*02:17 (setting [1]), 50.6 nM.

Consider SVLLWMASV, for which the figures for the dissociation constant Kd with HLA-A*02:01 (setting [1]), in the assay with HLA-A*02:06 (setting [1]) and with HLA-A*02:17 (setting [1]) were 6.33 nM, 15.7 nM and 20.9 nM, respectively.

Regarding TIMAAILAYT, the Kd in the assay with HLA-A*02:01 (setting [4]) turned out to be 33.4 nM; with HLA-A*02:03 (setting [4]), 9.23 nM; in the assay with HLA-A*02:17 (setting [4]), 12200 nM; with HLA-A*68:02 (setting [4]) it was 86.8 nM.

For the sequence TLMLLALIAV, the dissociation constant (Kd) with HLA-A*02:01 (setting [1]) was determined as 7.52 nM; in the assay with HLA-A*02:03 (setting [8]) it was 29.1 nM; with HLA-A*02:06 (setting [8]) it was 52.7 nM; with HLA-A*02:17 (setting [1]), 9100 nM.

On to TMFGGVSWMV, for which the Kd in the assay with HLA-A*02:01 (setting [13]) is 4.46 nM; in the assay with HLA-A*02:03 (setting [13]), 65.1 nM; with HLA-A*02:06 (setting [13]), 2.25 nM; with HLA-A*02:17 (setting [13]), 338 nM; with HLA-A*68:02 (setting [13]), 5.34 nM.

In the case of TPLVQPVGAL, the Kd was 86.9 nM in the assay with HLA-B*07:02 (setting [14]); 5270 nM in the assay with HLA-B*35:01 (setting [14]); 2340 nM in the assay with HLA-B*51:01 (setting [14]); 1720 nM with HLA-B*53:01 (setting [14]); 494 nM with HLA-B*54:01 (setting [14]).

Turning to VILFIMFMLI, the Kd was determined as 722 nM with HLA-A*02:02; 769 nM with HLA-A*02:03 (setting [9]); 1410 nM with HLA-A*02:06 (setting [9]); 81 nM with HLA-A*03:01; 353 nM in the assay with HLA-A*11:01; 128 nM with HLA-A*31:01. Moreover, the Kd with HLA-A*33:01 came out at 514 nM; with HLA-A*68:01, 113 nM; with HLA-A*68:02 (setting [9]), 1080 nM; in the assay with HLA-B*07:02 (setting [9]), 5480 nM; with HLA-B*51:01 (setting [9]), 7570 nM; with HLA-B*53:01 (setting [9]), 1700 nM. Also, in the assay with HLA-B*54:01 (setting [9]), the Kd came out at 804 nM.

Regarding VLSIVSLFPL, the values for the Kd with HLA-A*02:01 (setting [1]), with HLA-A*02:17 (setting [1]) and in the assay with HLA-B*57:01 were 8.47 nM, 8 nM and 108 nM, respectively.

In the case of VPSVNEYHML, the dissociation constant (Kd) in the assay with HLA-B*07:02 (setting [9]) is 1210 nM; in the assay with HLA-B*35:01 (setting [9]) it was 4410 nM; with HLA-B*51:01 (setting [9]), at least 52200 nM; in the assay with HLA-B*53:01 (setting [9]), 2170 nM; with HLA-B*54:01 (setting [9]), at least 69900 nM.

As for WMTTEDMLSV, the Kd stood at 18.8 nM in the assay with HLA-A*02:01 (setting [1]), 8.93 nM in the assay with HLA-A*02:03 (setting [8]), 10.6 nM in the assay with HLA-A*02:06 (setting [8]) and 593 nM in the assay with HLA-A*02:17 (setting [1]).

Turning to YIIRVTTEL, the Kd with HLA-A*02:02 was 0.856 nM; with HLA-A*02:03 (setting [9]), 17.6 nM; with HLA-A*02:06 (setting [9]) it was 18.1 nM; with HLA-A*03:01 it was at least 78000 nM; with HLA-A*11:01, at least 77900 nM; with HLA-A*31:01, at least 77900 nM. For the same sequence, the Kd is at least 77700 nM with HLA-A*33:01; at least 64600 nM with HLA-A*68:01; 147 nM with HLA-A*68:02 (setting [9]); 521 nM with HLA-B*07:02 (setting [9]); 14600 nM in the assay with HLA-B*35:01 (setting [9]); 14600 nM in the assay with HLA-B*51:01 (setting [9]). The Kd with HLA-B*53:01 (setting [9]) is at least 36700 nM; with HLA-B*54:01 (setting [9]) it was at least 78100 nM.

In the case of YPSMFEKHI, the Kd with HLA-B*07:02 (setting [15]) is 16300 nM; with HLA-B*35:01 (setting [15]), 898 nM; with HLA-B*51:01 (setting [15]), 525 nM; with HLA-B*53:01 (setting [15]) it was 228 nM; in the assay with HLA-B*54:01 (setting [15]) it was at least 20500 nM.

For YTMCSGKFSI, the Kd in the assay with HLA-A*02:01 (setting [13]) is 79.8 nM; in the assay with HLA-A*02:17 (setting [13]), 538 nM; with HLA-A*68:02 (setting [13]) it was 1.45 nM.

Source of the values: the Immune Epitope Database (IEDB).
